In the supplement of paper PMC10567573:
± gives the standard deviation.

Assay: protein stability index of a GFP-peptide fusion (GPS, HEK-293T) (PSI 1-6); higher = more stable
Details: c terminus: a fixed tail appended
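Also: 24-mer peptide tiles fused after GFP, lentivirally expressed, FACS-sorted into six equal bins by GFP/DsRed ratio, decoded by Illumina sequencing, PSI is the read-weighted mean bin number.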

Sequence	protein stability index (treatment: DMSO)	protein stability index (treatment: MLN4924 1 uM, 8 h)
DFHLSIHSDMAAIVKAMASPESGL [DVL3]	2.87 ± 0.21	2.85 ± 0.24
DFIHRHCQDQNVPVENFFVKCNGA [SDE2]	2.83 ± 0.088	2.95 ± 0.34
DFSVSLKASGKNKHFKVQLVDNVY [NCK2]	2.27 ± 0.25	2.25 ± 0.19
DFYREDEDEEEEEGGEGEKEGEGE [TRIM55]	5.57 ± 0.57	5.79 ± 0.084
DGQYMGVAFRGLKGKKLYPVVSAV [SPSB1]	2.36 ± 0.55	2.12 ± 0.48
DKDKSPESHKAKNESWIKSHFSRL [C10orf62]	3.46 ± 0.25	3.48 ± 0.31
DKLALCHLELTRKLQDLIKDVLRY [FCHO1]	2.9 ± 0.48	2.74 ± 0.43
DLAGLGSETPKSQVGTLLFRSRSR [CDC25B]	3.83 ± 0.35	4.11 ± 0.35
DLAYQLQVAKTKQQIEEQRVQVQV [FLOT1]	3.4 ± 0.19	3.73 ± 0.22
DLDAKIREALVLRSVRVRLLLSFW [PLD5]	3.52 ± 0.33	2.53 ± 0.86
DLEAKEVTPRTALLTWTEPPVRPA [TNXB]	4.61 ± 0.14	4.53 ± 0.23
DLHRQFPFHEMFVSRGGHGQQDLF [TBC1D10A]	2.73 ± 0.17	2.8 ± 0.34
DLIDVDLIRGSTFAKAKPEIPWTS [PHTF1]	2.25 ± 0.17	2.46 ± 0.22
DLLRNTHFRGVSLNLTRKLAQQLC [DYRK1B]	2.35 ± 0.48	2.22 ± 0.3
DLPEVESLPRDRVLGFLIENFKGL [VPS39]	3.27 ± 0.59	3.19 ± 0.34
DMMVMGRKPDPMCVFTYVQSLYNH [SMTNL2]	2.28 ± 0.24	2.2 ± 0.34
DNPLDRPLVGQDEFFLEQTKKKGV [NOP53]	5.25 ± 0.3	5.37 ± 0.22
DPLANGCQGVSEAAHRLARRLYHL [PSD2]	3.24 ± 0.18	3.52 ± 0.059

Sequence	protein stability index (treatment: DMSO)	protein stability index (treatment: MLN4924 1 uM, 8 h)
DPTNWLRCYYYEDTISTIKSVAWE [NCF4]	2.12 ± 0.47	2.47 ± 0.13
DQDEGEWGLDQEQVFSLGDGVSGG [ZBED1]	5.57 ± 0.17	5.42 ± 0.12
DRGIKGDITPLMAAANGGHVKIVK [ANKRD17]	4.42 ± 0.11	4.38 ± 0.085
DRIATTDDTTAMASASSSATGSFS [MAGEA10]	5.2 ± 0.11	5.28 ± 0.09
DRRKKIARMGFNASSMLRKSQLGF [DCAF4]	2.67 ± 0.34	2.84 ± 0.13
DSEEELAAFCPQLDDSTVARELAI [RETREG3]	5.12 ± 0.28	5.24 ± 0.19
DSGVGASLTRSNRHRLRWHSFQSS [DLC1]	3.03 ± 0.13	3.04 ± 0.21
DSIKDEDRTSLATFHEGKHNISHM [WDFY1]	4.66 ± 0.23	4.59 ± 0.28
DTMRQINKKGFWSYGPVILVVLVV [TOR1AIP2]	2.49 ± 0.48	2.42 ± 0.37
DVLENAFAPLLDEQYDLATKRVRQ [GOLPH3]	3.43 ± 0.26	3.52 ± 0.5
DVYSFAIVIWGVLTQKKPFADEKN [RIPK4]	2.61 ± 0.77	1.86 ± 0.072
EAAEGRNKNEVFYQCPDQMARNPA [FBXO3]	5 ± 0.32	4.67 ± 0.52
EACKAFFKRTIQGSIEYSCPASNE [ESRRA]	2.98 ± 0.19	3 ± 0.17
EADVNGLRRVLDELTLARTDLEMQ [KRT16]	4 ± 0.35	4.07 ± 0.094
EAEAADSGAVGARRFLLCLYLVGF [MFSD9]	2.79 ± 0.91	2.65 ± 0.71
EALAKQVASEMRFVQDLVRALEQE [DAPK3]	2.95 ± 0.25	3.09 ± 0.54
EAQAFRALVQEKIQKRNQRQSGDR [WAS]	4.5 ± 0.12	4.5 ± 0.13
EDENDLEELNNGEPQTEHQQESES [MIA2]	5.57 ± 0.21	5.74 ± 0.12
